{"source": "patent US12441790B2", "about": "“Binding proteins to the human thrombin receptor, PAR4” (MONASH UNIVERSITY, priority 2017, dated 2025)", "molecules": {"B1": {"name": "5A.RC3: anti-PAR4 monoclonal antibody, IgG2a/K, VH SEQ ID NO:11 and VL SEQ ID NO:12 (antibody, V domains shown)", "VH": "QVQLVESGGGVVQPGRSLRLSCAASGFTLSNYGMHWVRQAPGKGLEWVSVIWYDGSNKHYADSVKGRFTISRDNSKNTLYLQMNSLRAEDTAVYYCARESIVEVLPPFDYWGQGTLVTVSS", "VL": "KIVLTQSPGTLSLSPGERVTLSCRASQRVRNNYLAWFQQKPGQAPRLFIYGASSRATGIPDRFSGSGSGTDFIFTISRLEPEDFAVYYCQQYGNSYTFGQGTKLEIK", "modifications": "VH of 5A.RC3; VL of 5A.RC3"}}, "key": {"[1]": {"target": "T1, native PAR4 peptide (Homo sapiens, UniProt Q96RI0)", "T1 construct": "host or cells: synthetic peptide", "T1 sequence (Q96RI0 35-54 limits assumed)": "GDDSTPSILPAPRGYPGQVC", "experiment": "ELISA screening of hybridoma supernatants, native vs KLH-linked PAR4 peptide", "format": "binding", "settings": "first screening; second sub-clone", "experimental": "96-well ELISA plates were coated with 50 μl of antigen diluted to a concentration of 4 μg/ml in coating buffer (0.1M Sodium Hydrogen Carbonate (NaHCO3) (Merck, #1.06329.0500)). Plates were incubated overnight at 4° C.\nWells were then washed with an automated plate washer (300 μl 1×PBS, 3 times). The wells were blocked with 200 μl of blocking buffer (3% BSA/1×PBS (BSA: (Sigma, #1001647742)) for 1 hour at room temperature followed by washing as above.\n50 μl of undiluted hybridoma cell culture supernatant was added into appropriate wells and incubated at room temperature for 1 hour followed by washing as above. […] Wells were washed as above. A set of substrate tablets (1×silver, 1×gold) into 20 ml of ddH20 by shaking vigorously on the thermomixer for 6 mins at room temperature. 50 μl of substrate ([…]™ p-Nitrophenyl phosphate Tablets (Sigma-Aldrich, N2770-50SET)) was added into each well and incubated for 20-25 mins at room temperature. 50 μl of STOP solution (2M Sodium Hydroxide, Solid (NaOH) (Merck, Cas #1310-73-2)) was added into each well to stop the reaction. Absorbance was read at 405 nm immediately after adding STOP solution with the ELISA reader, using the ‘RdrOle4’ software."}, "[2]": {"test_system": "PAR4-120Ala and PAR4-120Thr variants", "experiment": "PAR4 thrombin cleavage assay on PAR4 variants in HEK293T cells", "format": "cell-based, human", "settings": "for inhibition of thrombin cleavage of Ala120 and Thr120 PAR4 variants: pre-incubation 1, 10 or 100 μg/ml before thrombin", "experimental": "1×10^6 HEK293T cells (in Dulbecco's modified eagle's medium+10% foetal calf serum) were seeded onto 12-well plates 24 hours before transfection. When confluent, they were transiently transfected with 1 μg of DNA from one of the PAR4 variants (expression vectors pBJ-FLAG-PAR4-120A-296F or pBJ-FLAG-PAR4-120T-296F; Edelstein et al (2014) Blood 124(23):3450-8) plus 4 μL of Lipofectamine 2000, as per manufacturer's instructions. Forty-eight hours after transfection, cells were harvested and washed twice with PBS, then resuspended to a count of 1×10^6/mL. Cells (50 μL assays/0.5×10^5 cells per condition) were then pre-treated with either 1, 10 or 100 μg/mL of 5RC3 or sub-clone 5A.RC3.F10b.H4b or 100 μg/mL matched Isotype control (mouse IgG1) for 15 minutes at 37° C. Cells were then stimulated with 2 U/mL of thrombin for 10 minutes. The reaction was stopped by the addition of 4 U/mL hirudin. Cells were then washed once and resuspended with PBS containing a 1:200 dilution of FITC anti-FLAG antibody (Sigma, clone M2) and incubated for 1 hour at room temperature in the dark. Cells were then fixed with 1% paraformaldehyde (final concentration) and read on a FACSCalibur flow cytometer to determine % of FL1/FITC-Positive events. Data were normalised against the resting sample (100%, no thrombin treatment).\nIn order to determine whether the anti-PAR4 clones could inhibit the effects of thrombin on PAR4 cleavage, in vitro inhibition assays were performed. HEK293T cells were transiently transfected with the PAR4-120Ala (A) or PAR4-120Thr (T) variants which contained a FLAG epitope upstream of the thrombin cleavage site. Cleavage of PAR4 by thrombin was measured by loss of Flag tag from the PAR4 expressing HEK293 cells using flow cytometry.\nCells were stimulated with increasing doses of thrombin (0.1-2 U/ml) and the amount of thrombin cleavage was measured as a loss of FLAG epitope using a FITC-conjugated anti-FLAG antibody by flow cytometry."}, "[3]": {"test_system": "human platelets", "experiment": "Thrombin-induced platelet aggregation assay", "format": "cell-based", "experimental": "Platelet aggregation was measured by light transmission aggregometry in a 96-well plate format. Human isolated platelets (2×10^8/ml) were pre-treated for 10 mins at 37° C. with dimethylsulfoxide (DMSO) (1% v/v), the PAR1 antagonist vorapaxar (90 nM), the anti-PAR4 antibody 5RC3 (20-100 μg/ml), or a combination of vorapaxar and 5RC3. Platelets were treated with one of thrombin (0.1 U/ml) and aggregation was analysed at 37° C. in a FLUOstar OPTIMA plate reader (BMG Labtech) using a 595 nm excitation filter, for a period of 50 min (10 read cycles with 5 min double orbital shake period between each read). Optical density was normalised against the blank (maximum) and unstimulated platelets (minimum) and expressed as % maximum.\nHuman isolated platelets of different PAR4 variants were assessed for their responses to PAR4 agonists.\nThe binding of five anti-PAR4 monoclonal antibodies to human platelets was examined by flow cytometry."}, "[4]": {"test_system": "human whole blood", "experiment": "Human whole blood thrombosis assay", "format": "cell-based", "experimental": "Human whole blood collected in citrate (3.2%) was pre-incubated for 15 min at 37° C. with PE-conjugated anti-CD9 antibody (4 μg/mL) and an anti-fibrin antibody (5 μg/ml), and one of hirudin (800 U/ml), DMSO (1% v/v), PAR-1 antagonist E5555 (1 μM), anti-PAR4 antibody (0.2 mg/ml) or the combination of both PAR inhibitors. Whole blood was re-calcified with 5-7.5 mM CaCl2 (final concentration) to initiate coagulation, and drawn over glass microslides (1×0.1 mm internal diameter) coated with bovine type 1 collagen (250 μg/ml) at a fixed flow rate of 0.06 ml/min, resulting in a wall shear rate of 600 s^−1. Dual colour confocal fluorescence images were recorded at 488 and 561 nm excitation, collected through a 40× water immersion objective. Confocal z-stacks were continuously recorded for 2 min before modified, calcium-free Tyrode's buffer was flowed over the thrombi and z-stacks encompassing the entire height of the thrombus field were recorded over a period of 10 min. Platelet thrombi were defined using anti-CD9-PE and fibrin volume was quantified using average fluorescence of the thrombus field. Data were normalised against the hirudin baseline and expressed as a percentage of the control.\nThrombosis parameters including platelet deposition, thrombin activity, fibrin volume and ratio of fibrin per thrombus were measured in real-time over a period of 10 minutes in a whole blood thrombosis assay as described herein under conditions of coagulation.\nPlatelet deposition (PE-conjugated anti-CD9), thrombin activity (FRET-based thrombin probe), fibrin volume (Dylight650-conjugated anti-fibrin antibody) and the ratio of fibrin per thrombus at the 10 minute end-point is shown in FIG. 10A by confocal microscopy (to allow for volume measurements to be taken) using a Nikon Air with a 25× lens and 2× digital magnification.\nThe volume of human thrombi formed after 3 min was quantified by confocal microscopy in an ex vivo human whole blood thrombosis assay."}, "[5]": {"settings": "10 minute endpoint, 5A.RC3 100 μg/ml, hirudin 800 U/ml"}}, "note": "“Also recorded” adds a separate entry of the source."}
{"molecule": "B1", "values": [{"measurement": "Fold binding native vs KLH-linked PAR4 peptide", "setting": "[1]", "value": 19.3}, {"measurement": "reversal of inhibition by the immunising peptide", "setting": "[2]", "value": "reversed"}, {"measurement": "inhibition of thrombin cleavage of Ala120 and Thr120 PAR4 variants", "setting": "[2]", "value": "near complete inhibition of thrombin cleavage; also recorded: significantly inhibited thrombin induced PAR4 cleavage"}, {"measurement": "inhibition of thrombin cleavage of Ala120 and Thr120 PAR4 variants", "setting": "[2]; listed as 5A.RC3.H4b", "value": "effectively inhibited cleavage of PAR4 expressed on the surface of HEK293 cells in a dose dependent manner"}, {"measurement": "inhibition of platelet aggregation at the highest concentration tested", "setting": "[3]; 0.1 U/ml thrombin", "value": "Near maximal inhibition"}, {"measurement": "inhibition of thrombin-induced platelet aggregation", "setting": "[3]; in the presence of a PAR1 antagonist, genotypes TT, AT, AA", "value": "inhibited in a dose dependent manner"}, {"measurement": "total thrombus volume", "setting": "[4]; 100 μg/ml, thrombi formed after 3 min", "value": "reduced total thrombus volume"}, {"measurement": "ratio of fibrin per thrombus volume", "setting": "[4]; 10 minute endpoint, 5A.RC3 100 μg/ml", "value": "significantly inhibited"}, {"measurement": "fibrin volume", "setting": "[4]; [5]", "value": "significantly inhibited"}, {"measurement": "platelet deposition", "setting": "[4]; [5]", "value": "no effect"}, {"measurement": "thrombin activity", "setting": "[4]; [5]", "value": "significantly inhibited"}]}
